Measurements: publication PMC3115021, “Dynamics of Cdk1 Substrate Specificity during the Cell Cycle” (Molecular Cell, 2011)

How the values were obtained:
Test in all cases: Quantitative phosphorylation assay of T33-Sic1ΔC constructs and recombinant substrates
Assay type in all cases: biochemical
Cln2-Cdk1 = molecular target: T1, Cln2-Cdk1 (Saccharomyces cerevisiae, UniProt P00546+P20438); conditions: for kcat/KM, Cln2: Table S2, purified protein substrate, relative values, not divided by [S]
T1 construct: We purified the four cyclin-Cdk1 complexes from yeast; made in house; host or cells: S. cerevisiae strain DMY305 (galactose-induced); Cks1 from bacteria
T1 sequence (P00546 2-298 limits assumed): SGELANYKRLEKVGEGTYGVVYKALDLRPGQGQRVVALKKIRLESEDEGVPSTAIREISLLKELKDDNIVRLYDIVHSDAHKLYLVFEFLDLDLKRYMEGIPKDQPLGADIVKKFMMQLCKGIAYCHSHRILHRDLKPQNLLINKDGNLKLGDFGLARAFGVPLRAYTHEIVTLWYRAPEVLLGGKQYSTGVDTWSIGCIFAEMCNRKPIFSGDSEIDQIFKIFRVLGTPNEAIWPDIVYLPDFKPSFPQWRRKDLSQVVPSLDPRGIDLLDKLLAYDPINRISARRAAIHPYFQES
T1 sequence (P20438 whole entry partner): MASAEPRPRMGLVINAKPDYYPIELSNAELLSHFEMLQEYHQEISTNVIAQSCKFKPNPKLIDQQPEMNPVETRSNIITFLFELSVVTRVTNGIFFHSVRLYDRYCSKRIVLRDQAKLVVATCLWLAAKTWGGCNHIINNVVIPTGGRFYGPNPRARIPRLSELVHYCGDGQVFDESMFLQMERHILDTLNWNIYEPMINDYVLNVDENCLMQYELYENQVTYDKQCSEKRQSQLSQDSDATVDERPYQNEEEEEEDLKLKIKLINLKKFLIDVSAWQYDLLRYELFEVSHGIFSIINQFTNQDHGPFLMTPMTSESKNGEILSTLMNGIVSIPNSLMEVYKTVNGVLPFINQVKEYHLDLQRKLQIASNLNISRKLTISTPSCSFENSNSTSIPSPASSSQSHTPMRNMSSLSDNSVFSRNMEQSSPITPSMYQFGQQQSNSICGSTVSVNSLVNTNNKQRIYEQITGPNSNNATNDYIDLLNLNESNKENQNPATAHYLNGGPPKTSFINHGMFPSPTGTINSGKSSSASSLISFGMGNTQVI
T1 sequence (P20486 whole entry partner): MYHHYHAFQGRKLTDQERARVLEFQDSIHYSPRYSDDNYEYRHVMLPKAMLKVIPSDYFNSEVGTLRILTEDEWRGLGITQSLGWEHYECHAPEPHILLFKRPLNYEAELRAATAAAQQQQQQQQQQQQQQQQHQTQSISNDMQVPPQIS
Protocol: (§1) For the quantitative phosphorylation assays of T33-Sic1ΔC constructs and recombinant substrates, substrate concentrations were kept in the range of 0.5–2 μM (in the linear [S] versus v0 range, several-fold below the estimated KM value), and initial velocity conditions were defined as an initial substrate turnover of up to 10% of the total turnover. For the steady-state peptide kinetics of the Histone peptide PKTPKKAKKL, a similar assay composition was used as for protein substrates, and phosphocellulose paper was used for the quantification of the phosphorylated substrate. […]
(§2) similar substrate specificity as the Cln2-Cdk1 version purified using a TAP-tag. N-terminally 6His-tagged recombinant T33-Sic1ΔC constructs and substrates were cloned into the pET28a vector and purified by standard cobalt affinity chromatography and elution with 200 mM imidazole. 6His-Fin1 was purified as described previously (Woodbury and Morgan, 2007). Substrates cloned into the pGEX-4T-1 were purified on glutathione agarose columns using 5 mM reduced glutathione for elution. Cks1 was purified as described previously (Reynard et al., 2000). The optimal working concentration for purified Cks1 was taken as 500 nM based on optimization performed for cyclin-Cdk1 preparations and T33-Sic1ΔC as a substrate.
(§3) For the quantitative phosphorylation assays of T33-Sic1ΔC constructs and recombinant substrates, substrate concentrations were kept in the range of 0.5-2 μM (in the linear [S] vs v0 range, several-fold below the estimated KM value), and the initial velocity conditions were defined as an initial substrate turnover ranging up to 10% of the total turnover. The latter was estimated by a long-term incubation with excess amounts of cyclin-Cdk1 and 32P-γ-ATP in the standard reaction mixture given below. About 1-10 nM of purified kinase complex was used, reaction aliquots were taken at two or more time points, and the reaction was stopped by SDS-PAGE sample buffer. The relative kcat/KM values for the substrates were calculated as the ratio of v0/[S], which was determined from at least two independent experiments. The basal composition of the assay mixture contained 50 mM Hepes, pH 7.4, 100 mM NaCl, 0.1% NP-40, 20 mM imidazole, 0.1 mg/ml 2HA peptide, 2% glycerol, 2 mM EGTA, 0.2 mg/ml BSA, […], and 500 μM ATP (with added 32P-γ-ATP (Perkin Elmer)).
(§4) About 1-10 nM of purified kinase complex was used, reaction aliquots were taken at two or more time points, and the reaction was stopped by SDS-PAGE sample buffer. For the steady-state peptide kinetics of the Histone peptide PKTPKKAKKL, a similar assay composition was used as for protein substrates and the standard phosphocellulose method was applied for the quantification of the phosphorylated substrate (Loog and Morgan, 2005). Synthetic peptides as competitor agents were used in 4 mM final concentrations. […]

Clb3-Cdk1 = molecular target: T2, Clb3-Cdk1 (Saccharomyces cerevisiae, UniProt P00546+P24870); conditions: Table S2; purified protein substrate; relative values, not divided by [S]
T2 construct: We purified the four cyclin-Cdk1 complexes from yeast; made in house; host or cells: S. cerevisiae strain DOM0957 (gal-CLB3-TAP, sic1 deleted); Cks1 from bacteria
T2 sequence (P00546 2-298 limits assumed): as the sequence (P00546 2-298 limits assumed) above
T2 sequence (P24870 whole entry partner): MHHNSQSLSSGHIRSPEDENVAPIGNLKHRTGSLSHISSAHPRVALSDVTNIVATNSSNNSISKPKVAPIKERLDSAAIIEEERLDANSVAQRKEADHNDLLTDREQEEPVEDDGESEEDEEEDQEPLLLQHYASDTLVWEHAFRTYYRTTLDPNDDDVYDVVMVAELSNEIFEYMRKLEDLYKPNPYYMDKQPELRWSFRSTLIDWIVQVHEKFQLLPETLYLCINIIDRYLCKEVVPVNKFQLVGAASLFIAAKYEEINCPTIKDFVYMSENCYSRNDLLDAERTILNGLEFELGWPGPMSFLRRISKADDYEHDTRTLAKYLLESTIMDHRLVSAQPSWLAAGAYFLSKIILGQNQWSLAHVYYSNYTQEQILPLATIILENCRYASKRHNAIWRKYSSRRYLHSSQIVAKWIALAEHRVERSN
T2 sequence (P20486 whole entry partner): as the sequence (P20486 whole entry partner) above
Protocol: as §1, §2, §3, §4

Clb5-Cdk1 = molecular target: T3, Clb5-Cdk1 (Saccharomyces cerevisiae, UniProt P00546+P30283); conditions: for kcat/KM, Clb5: Table S2, purified protein substrate, relative values, not divided by [S]; for effect of competitor peptide on Clb5-dependent phosphorylation of Sic1ΔC: synthetic competitor peptide 4 mM, result in words
T3 construct: We purified the four cyclin-Cdk1 complexes from yeast; made in house; host or cells: S. cerevisiae strain DOM0076 (gal-CLB5-TAP, sic1 deleted); Cks1 from bacteria
T3 sequence (P00546 2-298 limits assumed): as the sequence (P00546 2-298 limits assumed) above
T3 sequence (P30283 whole entry partner): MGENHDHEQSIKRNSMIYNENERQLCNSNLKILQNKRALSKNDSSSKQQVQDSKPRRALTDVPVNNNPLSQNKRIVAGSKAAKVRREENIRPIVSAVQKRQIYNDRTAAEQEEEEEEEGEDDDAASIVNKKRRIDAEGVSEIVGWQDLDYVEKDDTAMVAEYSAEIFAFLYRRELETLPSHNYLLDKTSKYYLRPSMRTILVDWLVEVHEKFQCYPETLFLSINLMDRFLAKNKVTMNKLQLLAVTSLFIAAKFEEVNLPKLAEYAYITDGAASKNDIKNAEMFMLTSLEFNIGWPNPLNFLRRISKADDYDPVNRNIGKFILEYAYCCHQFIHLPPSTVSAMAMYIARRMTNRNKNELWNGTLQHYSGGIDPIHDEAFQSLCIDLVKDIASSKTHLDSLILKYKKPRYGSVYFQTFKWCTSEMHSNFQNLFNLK
T3 sequence (P20486 whole entry partner): as the sequence (P20486 whole entry partner) above
Protocol: as §1, §2, §3, §4

Clb2-Cdk1 = molecular target: T4, Clb2-Cdk1 (Saccharomyces cerevisiae, UniProt P00546+P24869); conditions: Table S2; purified protein substrate; relative values, not divided by [S]
T4 construct: We purified the four cyclin-Cdk1 complexes from yeast; made in house; host or cells: S. cerevisiae strain DOM0077 (gal-CLB2-TAP, sic1 deleted); Cks1 from bacteria
T4 sequence (P00546 2-298 limits assumed): as the sequence (P00546 2-298 limits assumed) above
T4 sequence (P24869 2-491 partner limits assumed): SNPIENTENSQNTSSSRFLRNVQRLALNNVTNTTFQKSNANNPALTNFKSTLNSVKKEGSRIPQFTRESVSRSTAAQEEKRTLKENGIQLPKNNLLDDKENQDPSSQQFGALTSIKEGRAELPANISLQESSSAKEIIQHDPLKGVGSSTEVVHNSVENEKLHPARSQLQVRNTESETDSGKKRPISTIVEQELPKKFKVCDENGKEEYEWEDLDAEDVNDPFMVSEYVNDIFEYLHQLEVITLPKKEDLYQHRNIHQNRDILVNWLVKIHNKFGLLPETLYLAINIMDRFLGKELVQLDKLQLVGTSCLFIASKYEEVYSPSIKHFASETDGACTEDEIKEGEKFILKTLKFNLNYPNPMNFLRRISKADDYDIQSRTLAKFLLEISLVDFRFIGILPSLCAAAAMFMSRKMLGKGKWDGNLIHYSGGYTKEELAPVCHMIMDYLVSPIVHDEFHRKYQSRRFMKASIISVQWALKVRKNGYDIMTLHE
T4 sequence (P20486 whole entry partner): as the sequence (P20486 whole entry partner) above
Protocol: as §1, §2, §3, §4

[1] = synthetic competitor peptide 4 mM

RTT109: purified yeast protein tested as Cdk1 substrate
kcat/KM, Cln2 (Cln2-Cdk1): 0.067 relative units | kcat/KM, Clb3 (Clb3-Cdk1): 0.027 relative units | kcat/KM, Clb5 (Clb5-Cdk1): 0.010 relative units | kcat/KM, Clb2 (Clb2-Cdk1): 0.080 relative units

RVNAIAFPT [AXL peptide, similar peptide in which the arginine of the RXL motif was replaced with alanine]
effect of competitor peptide on Cln2-dependent phosphorylation of Sic1ΔC (Cln2-Cdk1; [1]): 3- to 4 fold | effect of competitor peptide on Clb5-dependent phosphorylation of Sic1ΔC (Clb5-Cdk1): only the RXL peptide reduces the specificity of Clb5

RVNRILFPT [synthetic peptide based on the RXL2 motif of Sic1]
effect of competitor peptide on Cln2-dependent phosphorylation of Sic1ΔC (Cln2-Cdk1; [1]): 3- to 4 fold | effect of competitor peptide on Clb5-dependent phosphorylation of Sic1ΔC (Clb5-Cdk1): had an effect on Clb5-dependent phosphorylation

VLLPPSRPTS [LP peptide]
effect of competitor peptide on Cln2 docking / Cln2-dependent phosphorylation of Sic1ΔC (Cln2-Cdk1; synthetic competitor peptide 4 mM, result in words): competitive inhibitor of the docking

B1: MSA1: purified yeast protein tested as Cdk1 substrate (protein, UniProt Q08471 1-629, looked up)
G1-specific transcription …: MDKSMIKKRGRPPITKDYPNPLQSPMAHSSMQVQKQGPHSFAKPLMKVGQSSPSPNKRRLSIDHHHNLAATTRKGRYRGVLLSTPTKKSSTNGSTPISTPSSNDSYNNTVFSETRKTFLQSSPPIMTSSPAFQKKNDYMFPSQEQFKLSLTITESGKAVIAGSLPFSPSSKSSHLMNNNNKKIMQNEKIHKGSKKNAPKFEKRRILSLLKQMKNEKYCDTDTLPEAPPAKPSRSDIIDTELPTIIETSASPIGSARNNNILLSQPPQSPPSSAQLKPPSTPKSSLQFRMGFTPNVALNSVSLSDTISKSTNAVGASNNNNQNGNSISNIADANTLLTLTNSPGVFLSPRNKMLPKSTTASNEQQQEFVFKFSSGDPLLLTDDADGNWPEMLFNVSNTPRRQKCFNTPPSWINFGSPGLFSPPRSSNVMVNGTTVATASDSGNVHRQLQAQLEAQVQVQSQSNSPTQRQQQQRQFQIPPPHINMNSSPPQINIASPPHQSMSRVSSIYFNKEKTTTGVANMLGNTKSENLQPPANLFTAAHGPSTPRNQEFQLPTLIECTPLIQQTMNGSLGTKYIPGTSISNSATPNLHGFPVGTGKAPSSFDDSLKQNPYSNKQDDARTALKRLIDDQ
kcat/KM, Cln2 (Cln2-Cdk1): 0.157 relative units | kcat/KM, Clb3 (Clb3-Cdk1): 0.043 relative units | kcat/KM, Clb5 (Clb5-Cdk1): 0.024 relative units | kcat/KM, Clb2 (Clb2-Cdk1): 0.034 relative units

B2: STB1: purified yeast protein, Cln2-specific Cdk1 target (protein, UniProt P42845 2-420, looked up)
Protein STB1: SQPQMSPEKEQELASKILHRAELAQMTRQLKLGLSNVPSTKRKQDSTTKKRSGEDAEDVDEDHKTLLEAISPAKKPLHDDTNKMTVISPVKFVEKPNTPPSSRQRKAEDRSQQIKPRKEDTPSTPRASATPIILPHASSHYQRPHDKNFMTPKRNNNNSSNHSNNNNNIKKKAAGSKDAPQDSDNTAGADLLMYLATSPYNKSSHHGTPMAVRMPTTPRSYHYASQLSLNGNTASTSNDAVRFSHIKPSASSPQSTFKSNLLPNFPDESLMDSPSLYLSNNNGSVQATLSPQQRRKPTTNTLHPPSNVPTTPSRELNGTNFNLLRTPNFNMGDYLHNLFSPSPRVPAQQGASNTSASIPSVPAMVPGSSSNTSAIATAAISSHTTNNFLDMNANGIPLIVGPGTDRIGEGESIDDKLTD
kcat/KM, Cln2 (Cln2-Cdk1): 2.011 relative units | kcat/KM, Clb3 (Clb3-Cdk1): 0.622 relative units | kcat/KM, Clb5 (Clb5-Cdk1): 0.191 relative units | kcat/KM, Clb2 (Clb2-Cdk1): 0.878 relative units

B3: YOX1: purified yeast protein tested as Cdk1 substrate (protein, UniProt P34161 1-385, looked up)
Homeobox protein YOX1: MSQETKMLPSLSSLLSGTEISSSPVSPSFTNPRTSFHLDDRGTIKLPPLNTSINRPRSVESALRHTVTSLHENSSAYGDDMLKHTQSDSALSSQLNSSQETVDESHENLLLTPLNSKKRDYSVSSKKNDILTPLSAAKSIIIPSASKEKRRAFAFITHSQETFPKKEPKIDNAPLARRKRRRTSSQELSILQAEFEKCPAPSKEKRIELAESCHMTEKAVQIWFQNKRQAVKRQRIATSKSTTIIQTVSPPSPPLDVHATPLASRVKADILRDGSSCSRSSSSSPLENTPPRPHHSLNRRSSTPSIKRSQALTFHLNPQKKTLTPVKTSPNSRVNKLINSIDHSPSKAKRPVSNPSGSPKRKRKFGFKIVDQQPLKDLDPNAFRG
kcat/KM, Cln2 (Cln2-Cdk1): 0.584 relative units | kcat/KM, Clb3 (Clb3-Cdk1): 2.094 relative units | kcat/KM, Clb5 (Clb5-Cdk1): 0.244 relative units | kcat/KM, Clb2 (Clb2-Cdk1): 4.536 relative units

B4: ACE2: purified yeast protein tested as Cdk1 substrate (protein, UniProt P21192 1-770, looked up)
Metallothionein expression …: MDNVVDPWYINPSGFAKDTQDEEYVQHHDNVNPTIPPPDNYILNNENDDGLDNLLGMDYYNIDDLLTQELRDLDIPLVPSPKTGDGSSDKKNIDRTWNLGDENNKVSHYSKKSMSSHKRGLSGTAIFGFLGHNKTLSISSLQQSILNMSKDPQPMELINELGNHNTVKNNNDDFDHIRENDGENSYLSQVLLKQQEELRIALEKQKEVNEKLEKQLRDNQIQQEKLRKVLEEQEEVAQKLVSGATNSNSKPGSPVILKTPAMQNGRMKDNAIIVTTNSANGGYQFPPPTLISPRMSNTSINGSPSRKYHRQRYPNKSPESNGLNLFSSNSGYLRDSELLSFSPQNYNLNLDGLTYNDHNNTSDKNNNDKKNSTGDNIFRLFEKTSPGGLSISPRINGNSLRSPFLVGTDKSRDDRYAAGTFTPRTQLSPIHKKRESVVSTVSTISQLQDDTEPIHMRNTQNPTLRNANALASSSVLPPIPGSSNNTPIKNSLPQKHVFQHTPVKAPPKNGSNLAPLLNAPDLTDHQLEIKTPIRNNSHCEVESYPQVPPVTHDIHKSPTLHSTSPLPDEIIPRTTPMKITKKPTTLPPGTIDQYVKELPDKLFECLYPNCNKVFKRRYNIRSHIQTHLQDRPYSCDFPGCTKAFVRNHDLIRHKISHNAKKYICPCGKRFNREDALMVHRSRMICTGGKKLEHSINKKLTSPKKSLLDSPHDTSPVKETIARDKDGSVLMKMEEQLRDDMRKHGLLDPPPSTAAHEQNSNRTLSNETDAL
kcat/KM, Cln2 (Cln2-Cdk1): 0.025 relative units | kcat/KM, Clb3 (Clb3-Cdk1): 0.029 relative units | kcat/KM, Clb5 (Clb5-Cdk1): 0.004 relative units | kcat/KM, Clb2 (Clb2-Cdk1): 0.069 relative units

B5: TOS8: purified yeast protein tested as Cdk1 substrate (protein, UniProt P53147 1-276, looked up)
Homeobox protein TOS8: MGTSIVNLNQKIELPPIQVLFESLNRENETKPHFEERRLYQPNPSFVPRTNIAVGSPVNPVPVSSPVFFIGPSPQRSIQNHNAIMTQNIRQYPVIYNNNREVISTGERNYIITVGGPPVTSSQPEYEHISTPNFYQEQRLAQPHPVNESMMIGGYTNPQPISISRGKMLSGNISTNSVRGSNNGYSAKEKKHKAHGKRSNLPKATVSILNKWLHEHVNNPYPTVQEKRELLAKTGLTKLQISNWFINARRRKIFSGQNDANNFRRKFSSSTNLAKF
kcat/KM, Cln2 (Cln2-Cdk1): 2.830 relative units | kcat/KM, Clb3 (Clb3-Cdk1): 0.276 relative units | kcat/KM, Clb5 (Clb5-Cdk1): 0.069 relative units | kcat/KM, Clb2 (Clb2-Cdk1): 0.254 relative units
